For assay [1], the target named is GPC3 on the surface of hepatic cancer cell lines (SK-Hep1-GPC3 transfectant, HepG2, Huh7, Hep3B, SNU398) (human) (UniProt P51654). Briefly: FACS, SK-Hep1-GPC3 cells; lower right panel.
The target is the same in assay [2]. Briefly: FACS, SK-Hep1-GPC3 #9 cells; upper right panel.
The target is the same in assay [3]. Briefly: FACS, HepG2 cells; lower right panel.
For assay [4] the target is unchanged. Briefly: FACS, SK-Hep1-GPC3 #9 cells; lower left panel.

As to hIgG (antibody), the Mean, FL2-H turned out to be 3.49 in assay [1], 4.76 in assay [2], 2.87 in assay [3] and 5.79 in assay [4].
